Assay results from US20150119342A1 (published 2015).
Where no end group is shown, it is not given here. [ ]: non-standard residue; d: D form. The star is where a group is joined. 5FAM = O=C1OC2(c3ccc(O)cc3Oc3cc(O)ccc32)c2ccc(C(=O)*)cc21; Abu = CC[C@H](N)C(=O)O

How the values were obtained:
[1] = biological target: T1, human cIAP1 BIR3 domain with C-terminal 6xHis-tag (human, UniProt Q13490 251-363, limits assumed); test: fluorescence polarization, saturation binding; 2 nM probe, protein 0 to 20 µM
T1 construct: domain: BIR3
Protocol: (§1) After shaking (15 min) the plate was incubated for 3 hours at room temperature. […] All experiments were performed in black, flat-bottom 96-well microplates (Greiner bio-one).

[2] = biological target: T2, human cIAP2 BIR3 domain with C-terminal 6xHis-tag (human, UniProt Q13489 237-349, limits assumed); test: as above
T2 construct: domain: BIR3
Protocol: as §1

T1 sequence (Q13490 other isoform, or with tags, fused parts or gaps limits assumed): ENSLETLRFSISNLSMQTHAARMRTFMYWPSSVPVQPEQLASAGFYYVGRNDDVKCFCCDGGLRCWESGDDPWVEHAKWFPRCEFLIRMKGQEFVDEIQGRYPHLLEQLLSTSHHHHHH
T2 sequence (Q13489 other isoform, or with tags, fused parts or gaps limits assumed): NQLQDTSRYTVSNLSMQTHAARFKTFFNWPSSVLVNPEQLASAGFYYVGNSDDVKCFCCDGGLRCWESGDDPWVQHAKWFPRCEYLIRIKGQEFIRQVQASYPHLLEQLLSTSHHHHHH

Kd [1]: 4.8 nM
Kd [2]: 23.6 nM
B1: Fluorescent-labelled Smac peptide [AbuRPF-K(5-Fam)-NH2] (peptide)
peptide: [Abu]RPFK(5FAM)-NH2
modifications: N-terminus assumed
SMILES: CC[C@H](N)C(=O)N[C@@H](CCCNC(=N)N)C(=O)N1CCC[C@H]1C(=O)N[C@@H](Cc1ccccc1)C(=O)N[C@@H](CCCCNC(=O)c1ccc2c(c1)C(=O)OC21c2ccc(O)cc2Oc2cc(O)ccc21)C(N)=O
notes: Synthetic labelled probe used in the fluorescence polarization assays; also called FITC-SMAC; fluorescently-labelled Smac peptide
